Experimental data reported in patent US20160272995A1, “MANIPULATION OF PLASMODESMAL CONNECTIVITY TO IMPROVE PLANT YIELD AND FITNESS” (UNIVERSITY OF DELAWARE, priority 2013, published 2016).
Positions count from the first letter of the chain named.

Key:
PDLP5 = assay: RT-PCR of PDLP5 transcript in roots after hormone treatment; assay type: in vivo, Arabidopsis thaliana; conditions: nine-day-old seedlings, 4 hours; 100 μM SA, 5 μM NAA
Procedure: Relative band intensity was quantified with Image-J and standardized against ubiquitin. Concentrations: 100 μM salicylic acid (SA), 5 μM napthalene acetic acid (NAA). Three biological and two technical repeats were performed.
(§1) To further test that PDLP5pro responds to auxin, we treated 7-day-old PDLP5pro:GUS seedlings with the auxin analog 1-napthalene acetic acid (NAA). […] However, whereas DR5:GUS staining was intensified at the root meristem, exogenous auxin-induced PDLP5pro:GUS expression was again completely excluded from the root tip (FIG. 24).

PDLP5pro:GUS = assay: Hormone treatment of PDLP5pro:GUS seedlings, GUS staining of roots; assay type: in vivo, Arabidopsis thaliana; conditions: 7-day-old seedlings, 9 hours; NAA 100 nM, SA 100 μM, JA 50 μM, ABA 10 μM, 6-BAP 1 μM
Excerpt: (A) GUS staining of napthalene acetic acid (NAA)-treated roots. Images are tiled and manually aligned. Scale bars, 50 μm. (B) Model for the possible role of PDLP5 during lateral root (LR) emergence. In the wild type (WT) plant, auxin-triggered PDLP5 limits excess diffusion of auxin through PD. This helps regulate the expression timing of genes encoding LAX3 and CWR enzymes in the cortex that positively influence LR emergence. In the plant having a severe knock-down in PDLP5 (pdlp5-1), auxin can diffuse through PD into cortical (and later, epidermal) cells earlier than it should. En, endodermis; Co, cortex; Ep, epidermis This expedites the expression of emergence-promoting genes, accelerating LR emergence.
Concentrations: salicylic acid (SA), 100 μM; JA, 50 μM; ABA, 10 μM; 6-BAP, 1 μM. n=10 per treatment for each line. Representative images are shown. Scale bar, 100 μm.
as §1
GUS solution (100 mM sodium phosphate buffer, pH 7.0, 10 mM EDTA, 0.5 mM each potassium ferrocyanide and potassium ferricyanide, 1.24 mM X-Gluc, and 0.1% Triton X-100) was vacuum-infiltrated into plant tissue for five minutes, then removed from vacuum and incubated in 37° C. for 3 to 12 hrs, followed by a series of ethanol washes. Stained tissues were imaged using Zeiss Axioskop 2 microscope. LRP were quantified by counting both the emerged LR and unemerged LR, as determined by DRS::GUS staining of the primordia, under a dissecting microscope (1.2× magnification). LRP stages were determined by examining ethanol-cleared, GUS-stained tissue using 40× water lens.

[1] = test system: Nicotiana benthamiana leaves; assay: Transient expression via Agrobacteria-infiltration, extent of viral movement; assay type: in vivo; conditions: transient expression in Nicotiana benthamiana leaves
Procedure: (a) Schematics of PDLP5-m5, PDLP5-C, and PDLP5-2C mutants as created by overlapping PCR. (b) Transient expression of mutants in Nicotiana benthamiana leaves.
We also created mutants altering just two cysteines (“CC”, residues 288 and 289 of the C-terminal tail region) or a single cysteine (“C”, residue 298 of the C-terminal tail region) residues to A1a. The phenotypes of these partial mutants, as well as the PDLP5-OX, pldp5-1 and PDLP5-m5, were tested in transient expression in Nicotiana benthamiana leaves via Agrobacteria-infiltration, targeting the extent of viral movement for comparison.

Arabidopsis thaliana [2] = assay: Exposure to cold conditions (chilling); assay type: in vivo; conditions: relative to wild type plants and plants overexpressing PDLP5; 7 weeks at 5° C.
Procedure: Plants were grown to 2 weeks post germination at 20° C. followed by 7 weeks of culture at 5° C. with 16/8 hours light/darkness.

Arabidopsis thaliana [3] = assay: Vegetative growth, flowering and seed yield of plants; assay type: in vivo
Procedure: Wild type (WT) plants, plants overexpressing […]), and plants with a severe knock down of […] used as comparisons. (a) Whole plants at 10, 14, and 18 days post germination (dpg). Plants were grown at 22-20° C. with 50% humidity and with 16/8 hours light/darkness. (b) Leaves at 3 weeks post germination. Plants were grown at 24-22° C. with 70% humidity and with 16/8 hours light/darkness. […] Wild type (WT) plants, plants overexpressing PDLP5 (OX), and plants with a severe knock down of PDLP5 (KO) were used as comparisons. […] Seeds were germinated on plates, were transferred to soil after 1 week, and plants were grown at 22-20° C. with 16/8 hours light/darkness. […] Wild type (WT) plants and plants overexpressing […]) were used as comparisons. Plants were grown at 24-22° C. with 70% humidity and with 16/8 hours light/darkness. […] The sequence of the PCR product was confirmed followed by transformation of Top10 E. coli competent cells. […] Agrobacteria were transformed with the […]5 clone.

Arabidopsis thaliana [4] = assay: Root length and secondary root growth of PDLP5-m5 plants; assay type: in vivo; conditions: compared to wild-type plants
Excerpt: The sequence of the PCR product was confirmed followed by transformation of Top10 E. coli competent cells. After sequence confirmation, the PDLP5-m5 sequence was transferred from the entry clone pEN-PDLP5-m5 into a binary vector (pGWB) including the constitutive 35S promoter by a Gateway reaction; more particularly, the sequence was cloned into an expression vector under the control of a constitutive 35S promoter to create a pGWB-35S:PDLP5-m5 clone. Agrobacteria were transformed with the pGWB-35S:PDLP5-m5 clone. More particularly, pGWB was introduced into Agrobacteria strain GV3101, and the transformed Agrobacteria were used to transform 4-week-old Arabidopsis thaliana Col-0 plants using floral dipping to produce transgenic plants expressing PDLP5-m5. Transgenic Arabidopsis plants expressing the PDLP5-m5 mutant (pro35S:PDLP5-m5) were made in Col-0 WT and pldp5-1 (severe knockdown) backgrounds.

Arabidopsis thaliana [5] = assay: Drought test: 2 weeks water withdrawal, then rewatering; assay type: in vivo
Procedure: All plant lines were grown for 2 weeks with water prior to the 2 week water withdrawal. (a) Plants having a severe knock down of PDLP5 (pdlp5-1) and PDLP5-m5 plants bolt faster than plants overexpressing PDLP5 (OX) and wild type (WT) plants. (b) Plants overexpressing PDLP5 (OX) revive 3 days post rewatering (DPR). (c) Plants overexpressing PDLP5 (OX) fully recover and 10 days post rewatering (DPR); wild type (WT) plants are dead, and PDLP5-m5 plants continue to survive.
(a) Plants overexpressing PDLP5 (OX), wild type (WT) plants, plants having a severe knock down of PDLP5 (pdlp5-1), and three different PDLP5-m5 plants (T3-4-2, T2-6, and T2-26) which were all grown a different number of days as required to reach same rosette size before water withdrawal. Plants having the same rosette size are referred to as “same day bolting samples.” (b) Same day bolting samples of plants overexpressing PDLP5 (OX), wild type (WT) plants, plants having a severe knock down of PDLP5 (pdlp5-1), and three different PDLP5-m5 plants (T3-4-2, T2-6, and T2-26) at the end of a 2 week water withdrawal. (c) Same day bolting samples of plants overexpressing PDLP5 (OX) and two different PDLP5-m5 plants (T3-4-2 and T2-26) recover fully 3 days post rewatering.
Transgenic T1 plants were selected on basta+plates and homozygous T2 lines were identified by segregation test on T3 plants. For the drought test, homozygous lines were grown in soil for the 2 weeks with watering followed by 2 weeks of water withdrawal. Tolerance to drought stress of the PDLP5-m5 was assessed by the plant growth or death upon resuming watering.
PDLP5-m5 plants were evaluated by exposing them to drought conditions. PDLP-m5 plants were grown under normal conditions with water, water was withdrawn for 2 weeks, and rewatering was commenced. Plants having a severe knock down of PDLP5 (pdlp5-1) and PDLP5-m5 plants bolt faster than plants overexpressing PDLP5 and wild type plants (FIG. 13A). […] The early bolting of the PDLP5-m5 plants appeared to affect plant revival. Therefore, the experiment was repeated using same day bolting samples. Briefly, plants having the same rosette size were used, regardless of the number of days required to achieve that rosette size (FIG. 14A).

O=C(O)Cc1cccc2ccccc12 [NAA, 1-napthalene acetic acid]
PDLP5 transcript level in the roots (RT-PCR) (PDLP5): Induction of PDLP5 at the transcript level
PDLP5pro:GUS expression in roots (PDLP5pro:GUS): occurred in the cells above the ectopically induced LRP

CC/C=C\C[C@H]1C(=O)CC[C@@H]1CC(=O)O [JA]
PDLP5pro:GUS expression in roots (PDLP5pro:GUS): did not have any effect

CC1=CC(=O)CC(C)(C)C1(O)/C=C/C(C)=C\C(=O)O (centres unmarked) [ABA]
PDLP5pro:GUS expression in roots (PDLP5pro:GUS): did not have any effect

O=C(O)c1ccccc1O [SA, salicylic acid]
PDLP5 transcript level in the roots (RT-PCR) (PDLP5): Induction of PDLP5 at the transcript level
PDLP5pro:GUS expression in roots (PDLP5pro:GUS): induces PDLP5pro:GUS expression in roots

cytokinin
PDLP5pro:GUS expression in roots (PDLP5pro:GUS): did not have any effect

B1: PDLP5-CC: PDLP5 mutant altering two cysteines (residues 288 and 289 of the C-terminal tail) to Ala (protein, UniProt Q8GUJ2 26-299, looked up, variant C288A C289A)
Plasmodesmata-located protein …: SPTDNYIYAVCSPAKFSPSSGYETNLNSLLSSFVTSTAQTRYANFTVPTGKPEPTVTVYGIYQCRGDLDPTACSTCVSSAVAQVGALCSNSYSGFLQMENCLIRYDNKSFLGVQDKTLILNKCGQPMEFNDQDALTKASDVIGSLGTGDGSYRTGGNGNVQGVAQCSGDLSTSQCQDCLSDAIGRLKSDCGMAQGGYVYLSKCYARFSVGGSHARQTPGPNFGHEGEKGNKDDNGVGKTLAIIIGIVTLIILLVVFLAFVGKAARKLQDEKWCK
extent of viral movement [1]: did not show PDLP5-m5 effect

B2: PDLP5-C: PDLP5 mutant altering a single cysteine (residue 298 of the C-terminal tail) to Ala (protein, UniProt Q8GUJ2 26-299, looked up, variant C298A)
Plasmodesmata-located protein …: B1 Plasmodesmata-located protein … with A263C, A264C, C273A
extent of viral movement [1]: did not show PDLP5-m5 effect

B3: PDLP5-m5: PDLP5 mutant (SEQ ID NO:6) with three Cysteine→Alanine mutations at 288, 289, 298; expressed in transgenic plants under 35S promoter (protein)
chain: MIKTKTTSLLCFLLTAVILMNPSSSSPTDNYIYAVCSPAKFSPSSGYETNLNSLLSSFVTSTAQTRYANFTVPTGKPEPTVTVYGIYQCRGDLDPTACSTCVSSAVAQVGALCSNSYSGFLQMENCLIRYDNKSFLGVQDKTLILNKCGQPMEFNDQDALTKASDVIGSLGTGDGSYRTGGNGNVQGVAQCSGDLSTSQCQDCLSDAIGRLKSDCGMAQGGYVYLSKCYARFSVGGSHARQTPGPNFGHEGEKGNKDDNGVGKTLAIIIGIVTLIILLVVFLAFVGKAARKLQDEKWAK
modifications: modified PDLP5 protein
notes: expressed in transgenic plants under 35S promoter
resistance to cold conditions (Arabidopsis thaliana [2]): improved resistance
rosette diameter (Arabidopsis thaliana [3]; 22-20° C., 16/8 hours light/darkness): relative rosette diameter is maintained
seed yield (Arabidopsis thaliana [3]; compared to wild type and pdlp5-1): normal to better seed yield
flowering (Arabidopsis thaliana [3]; compared with WT and PDLP5-OX): early flowering
vegetative growth (Arabidopsis thaliana [3]; compared with WT, PDLP5-OX, pdlp5-1): fast vegetative growth
total secondary root growth (Arabidopsis thaliana [4]): increase in total secondary root growth
increase in root length (Arabidopsis thaliana [4]; 10 days post germination): 30-40%
outcome upon rewatering (Arabidopsis thaliana [5]; rewatering after 2 weeks water withdrawal): continued to grow upon rewatering
bolting (Arabidopsis thaliana [5]; versus plants overexpressing PDLP5 and wild type plants): bolt faster
response to water withdrawal (Arabidopsis thaliana [5]; water withdrawn for 2 weeks): resistant to water withdrawal
extent of viral movement [1]: more extensive viral movement
